Assay results reported in US20100285027A1 (CENTRE NATIONAL DE LA RECHERCHE SCIENTIFIQUE, published 2010).

Key:
[1] = target: T1, synthetic mouse hepcidin (mouse, UniProt Q9EQ21 59-83); assay: dot blot on nitrocellulose, antibody 1:200, HRP secondary antibody, ECL
T1 construct: mature; also called murine hepcidin-25
T1 peptide (looked up): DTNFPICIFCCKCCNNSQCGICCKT
Description: Samples of synthetic human hepcidin (100 to 500 ng) or synthetic mouse) hepcidin (500 ng) (Peptide International, Louisville, Ky., USA), or of […] sera from a patient with an inflammatory disease, or from a healthy volunteer, were used. In one experiment, one sample of synthetic human hepcidin (500 ng) was treated with Laemmli buffer. The samples were directly spotted onto the nitrocellulose membrane and allowed to dry overnight. Non-specific sites were blocked by soaking the membrane in 5% skim milk in TBS-T (1 hr, at room temperature).
The primary antibodies (AN-LP1 antibody, or irrelevant antibody HPC4 directed against the epitope […] (SEQ ID NO: 11) of human protein C) were added at a dilution of 1:200 from a solution at 6 mg/ml. Incubation was performed for 2 h at room temperature or overnight at +4° C.
After 3 washes with TBS-T, the membranes were incubated with the secondary antibody conjugated with horseradish peroxidase (1:5000) for 1 h at room temperature.

[2] = target: T2, synthetic human hepcidin-25 (human); assay: SPR (BIAcore 2000), AN-LP1 immobilized on a CM5 chip, hepcidin 0.39 nM to 12.5 nM as analyte
T2 construct: Synthetic peptide (Peptide International for the blots); Serum hepcidin and liver hepcidin detected by AN-LP1 are written under this molecule
T2 peptide: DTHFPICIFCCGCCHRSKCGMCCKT
Description: To estimate AN-LP1 affinity constant and the antibody-antigen interactions, surface plasmon resonance (SPR) measurements were performed with a BIAcore 2000 instrument using carboxymethylated dextran CM5 chips (BIAcore, Piscataway, N.J.). AN-LP1 mAb, dilued at 2 μg/ml in 5 mM maleate buffer (pH 5.75), was immobilized on the CM5 chips by amine coupling.
Hepcidin was diluted in running buffer HBS-EP (0.01M HEPES pH 7.4; 0.15M NaCl, 3 mM EDTA and 0.005% polysorbate 20). Analyte was injected in 3 min, 60 μL/min injections and dissociation was monitored during 10 min. Surface Ab were generated by a 30-s to 1-min injection of glycine-HCL 10 mM pH 2. Kinetic rate constants were determined with purified antibodies. Concentrated hepcidin (0.39 nM to 12.5 nM) were injected over the chip surface at a rate of 60 μL/min to collect binding data. Data analyses were carried out with the BIAevaluation 3.0 software.

[3] = target: T3, irrelevant peptide PELAPVSSNLKYTLDC; assay: ELISA on coated irrelevant peptide, anti-mouse peroxidase, ABTS, read at 405 nm
T3 construct: Negative control in the ELISA; also called control peptide
T3 peptide: PELAPVSSNLKYTLDC
Description: The hepcidin binding properties of AN-LP1 produced by hybridoma CNCM I-3794 were tested by ELISA. Synthetic human hepcidin-25 was coated on 96-well boxes, with a concentration of 1-10 microgram/ml in 100 mM carbonate buffer, pH 9.5. One part of the wells is coated with an irrelevant peptide ([…], SEQ ID NO: 10) to be able to determine the specific component of measured signal. After one night of contact, the wells are washed 3 times with a solution of PBS/0.05% tween 20, then saturated with a solution of 0.1M Tris 20%, sucrose pH 7.8. The mouse serums are added in duplicates, with 10-fold serial dilutions. After a 6 h incubation, the wells were washed three times with a solution of PBS 0.05%, tween 20 and an anti-mouse antibody coupled with peroxidase (Biosource) diluted to 1/5,000 in PBS, 0.1% BSA, 0.01% Tween 20 was added for an additional 1 h30-2 h.

binding result [1]: no binding (tested: 500 ng) | Kd [2]: 0.099 nM | binding result [3]: no binding
B1: monoclonal antibody AN-LP1 produced by the hybridoma CNCM I-3794 (antibody, V domains shown)
VH: EVQLEESGGGLVQPGGSLKLSCAASGFTFSRYSMSWVRQTPEKRLEWVAYISDGGGSTYSPDTVKGRFSISRDNAQNTLYLQMSSLKSEDTAIFYCVRHARLEGYFDVWGAGTSVTVSS
VL: DVLTQSPASVAVSLGQRATISCRASESVDNYGNSFMNWYQQKPGQPPKLLIYRASNLESGIPARFSGSGSRTDFTLTINPVEADDVATYYCQQSNEDPTFGGGTKLEIKR
notes: also called AN-LP1 mAb; mAb AN-LP1
